In the nanobody polyreactivity screen of Harvey et al. (2022):

assay: yeast display, Sf9 membrane polyspecificity reagent, FACS + sequencing; frameworks hold sequencing errors
Summary of the method: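 Sorting gates, low and high (top ~1%), were placed on anti-HA fluorescence to track expression and on streptavidin fluorescence to track reagent binding. A clone's polyreactivity label is taken from the gate it came out of. The reagent was 10% biotinylated, detergent-solubilized Sf9 membrane, applied for 1 hour at 4 °C to galactose-induced yeast display cells.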

Sequence | polyreactivity (PSR sort gate)
QVQLVESGGGLVQAGGSLRLSCAASGSTFLYVMGWYRQAPGKERELVAAISESGGSTYYADSVKGRFTISRDNAKNTVYLQMNSLKPEDTAVYYCAADLQTGLQYRYYRVDYWGQGTQVTVSS | low polyreactivity
QVQLVESGGGLVQAGGSLRLSCAASGSTFLYYAKGWSRQAPGKERELVAAISGSGGSTYYADSVKGRFTISRDNAKNTVYLQMNSLKPEDTAVYYCNAVARRHGLGPYDYWGQGTQVTVSS | high polyreactivity
QVQLVESGGGLVQAGGSLRLSCAASGSTFLYYAMGWYRPAPGKESELVAGISASGGSTYYADSVKGRFTISRDNAKITVYLQMNSLKPEDTAVYYCARYAGFPYTQCDYWGQGTQVTVSS | high polyreactivity
QVQLVESGGGLVQAGGSLRLSCAASGSTFLYYAMGWYRQAPGKEREFVAAISISGGSTYYADSVKGRFTISRDNAKNTVYLHMNSLKPEDTAVYYFAARKKEYKPGNYWGQGTQVTVSS | low polyreactivity
QVQLVESGGGLVQAGGSLRLSCAASGSTFLYYAMGWYRQAPGKERELVAAIDWSDTSTYYADSVKGRFTISRDNAKNTVYLQMNSLKPEDTAVYYCAADTYLVDGDYWGQGTQETVSS | low polyreactivity
QVQLVESGGGLVQAGGSLRLSCAASGSTFLYYAMGWYRQAPGKERELVAVISWSGVSTYYADSVKGRFTISRDNAKNTVYLQMNSLKPEDTPVYYCNTGNQYIRTYGYWGQGSQVTVSS | low polyreactivity
QVQLVESGGGLVQAGGSLRLSCAASGSTFLYYDMGWYRQAPGKERELVADITWSGSGTYYADSVKGRFTISRDNAKNTVYLQMNSLKPEDTAVYYCDADDTWRGDQYFYSYDYWGQGTQVTVSS | low polyreactivity
QVQLVESGGGLVQAGGSLRLSCAASGSTFNFNVMGWYRQAPGKERELVAAISSSGGNTYYADSVKGRFTISRDNAKNTVYLQMNSLKPEDTAVYYCAAEYEEWYSVFLYDYWGQGTQVTVSS | high polyreactivity
QVQLVESGGGLVQAGGSLRLSCAASGSTFNFYAMGWYRQAPGKEREFVAAITSSGDSTYYADSVKGRFTISRDNAKNTVYLQLNSLKPEDTAVYYCAARLRWRYSYDYWGQGTQVTVSS | high polyreactivity
QVQLVESGGGLVQAGGSLRLSCAASGSTFNGYAMGWYRQAPGKERELVAAITSSGSRTYYADSVKGRFTISRDNAKNTVYLQMNSLKPVDTAVYYCNAGKLARTYFRSSSVSPGDYWGQGTQVTVSS | high polyreactivity
QVQLVESGGGLVQAGGSLRLSCAASGSTFNHYAMGWYRQAPGKDRELVAAITKSGGSTYADSVKGRFTISRDNAKNSVYLQMNSLKPEDTAVYFCAAGRRKYGTKGRGDYWGQGTQVTVSS | low polyreactivity
QVQLVESGGGLVQAGGSLRLSCAASGSTFNHYTMGWYRQAPGKERELVAAISSRGGGTYYADSVKGRFTISRDNAKNTVYLQMNSLKPEDTAVYYCAALISSGIRHSRDYWGQGTQVTVSS | high polyreactivity
QVQLVESGGGLVQAGGSLRLSCAASGSTFNINGMGWYRQAPGKERELVASITGSGGNTYYADSVKGRFTISRDNAKNTVYLQMNSLKPEDTAVYYCNTTLYTGQPGRTFDYWGQGTQVTVSS | low polyreactivity
QVQLVESGGGLVQAGGSLRLSCAASGSTFNKYTMGWYRQAPGKERELVAAISSIGGSTYYADSVKGRFTISRDNAKNTVYLQMNSLKPEDTAVYYCAAPYPIGHDWGQGTQVTVSS | low polyreactivity
QVQLVESGGGLVQAGGSLRLSCAASGSTFNLYAMGWYRQAPGKERELVAAISDGDSSTYYADSVKGRFTISRDNAKNTVYLQMNSLKPEDTAVYYCNARDDVYLITPYFLVYVNLDYWGQGTQVTVSS | low polyreactivity
QVQLVESGGGLVQAGGSLRLSCAASGSTFNLYAMGWYRQAPGKERELVASISRSGVSTYYADSVKGRFTISRDNAKNTVYLQMNSLKPEDTAVYYCAVDKVLYRLYTGMDYWGQGTQVTVSS | low polyreactivity

Sequence | polyreactivity (PSR sort gate)
QVQLVESGGGLVQAGGSLRLSCAASGSTFNNYAMGSYRQAPGKVREFVAAINGSGGSTYYADSVKGRFTISRDNAKNTVYLQLNSRKPEDPAVYYCAADVSATAYYDLMDYWVQGTQVTVSS | low polyreactivity
QVQLVESGGGLVQAGGSLRLSCAASGSTFNQNAMGWYRQATGKERELVAAITVDGSSTYYADSVKGRFTISRDNAKNTVYLQMNSLKPEDTAVYYCAAGYSARSSGYTGGYDYWGQGTQVTVSS | high polyreactivity
QVQLVESGGGLVQAGGSLRLSCAASGSTFNRYAMGWYRQAPGKERELVASITTSDSTNYADSVNGRFTISRDNANNTVFLQINSLNPEDTAVYYCNAEVRGVWYTYDYWGQGTHVTVSS | low polyreactivity
QVQLVESGGGLVQAGGSLRLSCAASGSTFNTYAMGWYRQAPGKERELVASIRLRGGSTYYADSVKGRFTISRDNAKNTVYLQMNSLKPEDTAVYYCAARTWPWVLGGTQDDYWGQGTQVTVSS | low polyreactivity
QVQLVESGGGLVQAGGSLRLSCAASGSTFNVYAMGWYRQAPGKERDLVAAIDSGDSTNYADSVKGRFTISRDNAKNTVYLEMNSLKPEDTAVYYCAVGYWDSRYRYDWPNSDYWGQGTQVTVSS | low polyreactivity
QVQLVESGGGLVQAGGSLRLSCAASGSTFNVYGLGWYRQAPGKERELVAAINRDGITYADSVKGRFTISRDNAKNTVYLQMNSLKPEDTAVYYCAAGYSPYKGSAGYYWGQGTQVTVSS | low polyreactivity
QVQLVESGGGLVQAGGSLRLSCAASGSTFNWDAMGWYRQAPGQERELVAAISKSGGTTYYADSVKGRFTISRDNAKNTVYLQMNSLKPEDTAVYYCAAVRRYHSYPDGGYWGQGTQVTVSS | high polyreactivity
QVQLVESGGGLVQAGGSLRLSCAASGSTFNWNAMRWYRQPPGKERELVAAITSSGARTRYADSVKGRFTISRDNAKNTVYLQMNSLKPEDTAVYYCAAYVYISPSGYYYWGLGTQVTVSS | low polyreactivity
QVQLVESGGGLVQAGGSLRLSCAASGSTFNWYAMGWYRQAPGKEMELVAAITSTGGSTYADSVKGRFTISRDNAKNTVYLQMNSLKPEDTAVYYCNVDTSSPSRRDYDYWGQGTQVTVSS | low polyreactivity
QVQLVESGGGLVQAGGSLRLSCAASGSTFPFYAMGWYRQAPGKERELVAAIRYTGNTYYADSVKGRFTISRDNAKNTVFLLMISLKPEDTAVYYCAADADYWAYGYWGHGTQVTVSS | low polyreactivity
QVQLVESGGGLVQAGGSLRLSCAASGSTFPFYAMGWYRQAPGKERELVATISSDGSTNYADSVKGRFTISRDNAKNTDYLQMNSLKPEDTAVYYCNALARWCAYYDYGYWGQGTQVTVSS | low polyreactivity
QVQLVESGGGLVQAGGSLRLSCAASGSTFPFYVMGWYRQAPGKERELVASITATGSSTYYADSVKGRFTISRDNAKNTVYLQMNRLKPEDTAVYYCAAPYFGWYLGYYWYREYDYWGQGTQVTVSS | low polyreactivity
QVQLVESGGGLVQAGGSLRLSCAASGSTFPGNAMGWYRQAPGKERELVAAIDTSGGSTYYADSVKGRFTISRDNAKNTVYLQMNSLKAEDTAVYYCDADYLIEMDYWGQGTQVTVSS | low polyreactivity
QVQLVESGGGLVQAGGSLRLSCAASGSTFPGYAMGWYRQAPGKERELVAAISKRGGSTYYADSVKGRFTISRDNAKNTVYLQMNSLKPEDTAVYYCATVSRKYSLDYWGQGTQVTVSS | high polyreactivity
QVQLVESGGGLVQAGGSLRLSCAASGSTFPGYAMGWYRQAPGKERELVAAITWSGVTTYYADTVKGRFTMSRDNAKNTVYIQMNSLKPEDTAVYYCATGTLYSDGAIYGYWGQATQVTVSS | low polyreactivity
QVQLVESGGGLVQAGGSLRLSCAASGSTFPKYAMGWYRQAPGKERELVAAITFTGSSTYYADSVKGRFTISRDNAKNTVYLQMNSLKPEDTAVYYCNAVYYTGYYWGQGTQVTVSS | low polyreactivity
